Assay [1] has as its target T1, huNectin4-His (human, UniProt Q96NY8 32-349).
T1 construct: Immobilized on the SPR chip; also called humanNectin4; human Nectin4; not shown: His tag
T1 sequence (looked up): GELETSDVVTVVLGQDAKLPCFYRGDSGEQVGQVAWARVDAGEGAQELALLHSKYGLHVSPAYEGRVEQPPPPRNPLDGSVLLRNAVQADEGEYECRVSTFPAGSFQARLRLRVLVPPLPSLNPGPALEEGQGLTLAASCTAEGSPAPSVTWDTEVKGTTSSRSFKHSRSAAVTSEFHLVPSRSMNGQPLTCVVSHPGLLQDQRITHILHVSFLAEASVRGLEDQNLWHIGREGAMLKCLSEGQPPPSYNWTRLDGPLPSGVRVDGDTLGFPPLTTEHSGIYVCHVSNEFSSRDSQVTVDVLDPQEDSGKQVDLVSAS
Put plainly: SPR, huNectin4-His immobilized, pH 6.0. How it is done: (§1) Binding kinetics of anti-Nectin4 antibodies were measured by surface plasmon resonance using a SPR2/4 instrument (Sierra Sensors, Hamburg, Germany) and flat amine sensor chips. The SPR sensor contained four flow cells (FC1-FC4), each of which was addressed individually or in groups. huNectin4-His was immobilized in FC2, and cynoNectin4-mFc in FC4. No protein was immobilized in FC1 and FC3 which were used as control surfaces for FC2 and FC4, respectively.
(§2) All injections were done at a flow rate of 25 μL/min at 25° C. The sensor surface was activated with 1-ethyl-3-(3-dimethylaminopropyl)-carbodiimide (EDC) and N-hydroxysuccinimide (NHS) (200 mM/50 mM) for 480 seconds. HuNectin4-His (2 μg/mL in 10 mM NaAc, pH4.5) was injected for 480s and the surface was inactivated by injecting 1M ethanolamine-HCl for 480s. CynoNectin4 was immobilized using the same conditions as described for huNectin4-His, except that the cynoNectin4 was diluted into 10 mM NaAc buffer having pH 5.0. The control surface was activated and deactivated using the same conditions, but without injecting protein. PBST buffer (PBS pH 7.4 with 0.05% TWEEN20™) was used as running buffer for the surface preparation. The running solution was switched to PBST with 30 mM sodium bicarbonate with the pH adjusted as indicated in the figures before the analyte injections. The instrument was equilibrated with the running solution for one hour before the first analyte injection.
(§3) The off-rate was measured for 360s. The chip surface was regenerated after each cycle of interaction analysis by injecting 6 μL of 10 mM glycine (pH 2.0). Flow cells 1 and 3 without immobilized protein were used as control surfaces for reference subtraction.

Assay [2] has as its target T1, huNectin4-His. The assay can be described thus: SPR, huNectin4-His immobilized, pH 6.5. How it is done:
as §1, §2, §3
In general terms: SPR reads the build-up and loss of mass on a sensor chip optically.

For assay [3], the target named is T2, RatNectin4-His (rat, UniProt D3ZET1 31-348).
T2 construct: Immobilized on the SPR chip; not shown: His tag
T2 sequence: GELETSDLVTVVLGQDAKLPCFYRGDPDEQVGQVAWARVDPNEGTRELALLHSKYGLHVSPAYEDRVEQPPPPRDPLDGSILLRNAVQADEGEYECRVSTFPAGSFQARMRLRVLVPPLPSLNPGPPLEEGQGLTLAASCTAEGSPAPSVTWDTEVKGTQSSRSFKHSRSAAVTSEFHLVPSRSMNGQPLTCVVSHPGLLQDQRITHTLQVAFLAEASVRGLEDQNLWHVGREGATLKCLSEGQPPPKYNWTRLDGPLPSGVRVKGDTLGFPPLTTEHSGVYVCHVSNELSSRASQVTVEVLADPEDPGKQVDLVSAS
Put plainly: SPR, RatNectin4-His immobilized, pH 6.0. The protocol:
as §2, §3
In addition, data with buffer only as analyte (0 nM analyte) was subtracted from each run. Double subtracted data was fitted with the provided analysis software Analyzer R2 (Sierra Sensors) using a 1:1 binding model. A molecular weight of 150 kDa was used to calculate the molar concentrations of the analytes. RatNectin4-His was immobilized in FC3 using the same conditions as described for cynoNectin4.

For assay [4], the target named is T3, cynoNectin4-mFc (cyno, UniProt A0A2K5WES1 32-349).
T3 construct: Immobilized on the SPR chip; also called cyanoNectin4; not shown: mFc (mouse Fc)
T3 sequence: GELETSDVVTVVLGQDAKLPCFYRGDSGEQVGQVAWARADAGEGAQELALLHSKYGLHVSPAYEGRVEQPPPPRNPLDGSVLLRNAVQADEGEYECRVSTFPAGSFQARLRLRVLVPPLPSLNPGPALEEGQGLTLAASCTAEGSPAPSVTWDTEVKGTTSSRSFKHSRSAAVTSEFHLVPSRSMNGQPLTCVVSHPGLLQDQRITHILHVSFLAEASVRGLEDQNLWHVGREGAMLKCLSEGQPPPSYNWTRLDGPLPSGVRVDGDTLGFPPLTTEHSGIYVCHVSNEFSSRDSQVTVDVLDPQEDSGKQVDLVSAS
Put plainly: SPR, cynoNectin4-mFc immobilized, pH 6.5. The protocol: as §1, §2, §3

Assay [5] addresses T3, cynoNectin4-mFc. Put plainly: SPR, cynoNectin4-mFc immobilized, pH 6.5. How it is done: as §1, §2, §3
The source holds these as a separate data set.

A word on the Kd: it is the constant that tells how readily two partners part at equilibrium. A high value points to a looser complex. As usually defined, the koff is the first-order rate constant of dissociation. Low values mean a long-lived complex, high ones a short-lived complex. One may read the kon as the second-order rate constant of association. High values mean fast association, low ones slow association.

Read-outs that look alike come from different tables or passages of the source.

B1: BAP-143-wildtype (antibody, V domains shown)
VH: EVQLVESGGGLVQPGGSLRLSCAASGFTFSSYNMNWVRQAPGKGLEWVSYISSSSSTIYYADSVKGRFTISRDNAKNSLSLQMNSLRDEDTAVYYCARAYYYGMDVWGQGTTVTVSS
VL: DIQMTQSPSSVSASVGDRVTITCRASQGISGWLAWYQQKPGKAPKFLIYAASTLQSGVPSRFSGSGSGTDFTLTISSLQPEDFATYYCQQANSFPPTFGGGTKVEIK
notes: 150 kDa used in SPR; also called BAP143-00-00; benchmark (BM)
Consider B1, for which the Kd in assay [1] stood at 1.49 nM; in assay [2], 0.685 nM; in assay [3], 0.175 nM; in assay [4], 0.209 nM; in assay [5] it was 0.52 nM.

B2: BAP-143-06-24-16 (antibody, V domains shown)
VH: EVQLVQSGAEVKKPGATVKISCKVSGFTFSSYNMNWIRQSPSRGLEWLGYISSSSSTIYYADSVKGRFTISRDNSKNTLYLQMNSLRAEDTAVYYCARAYYYGDDVWGQGTLVTVSS
VL: DIQMTQSPSSVSASVGDRVTITCHASQGISGWLAWYQQKPGKAPKFLIYAASTLQSGVPSRFSGSGSGTDFTLTISSLQPEDFATYYCQQANSFPPTFGGGTKVEIK
notes: Used as a conjugate with a linker payload (CAB ADC)
With B2, in assay [3], the Kd is 0.104 nM, the koff is 0.000635 s⁻¹ and the kon came to 6.1e+06 M⁻¹ s⁻¹. In assay [4], this molecule had a Kd of 0.0534 nM, a koff of 8.99e-05 s⁻¹ and an on-rate constant (kon) of 1.68e+06 M⁻¹ s⁻¹.

B3: BAP-143-00-03 (antibody, V domains shown)
VH: EVQLVESGGGLVQPGGSLRLSCAASGFTFSSYNMNWVRQAPGKGLEWVSYISSSSSTIYYADSVKGRFTISRDNAKNSLSLQMNSLRDEDTAVYYCARAYYYGMDVWGQGTTVTVSS
VL: DIQMTQSPSSVSASVGDRVTITCRASQGISGWLAWYQQKPGKAPKFLIYAASTLQSGVPSRFSGSGSGTDFTLTISSLQPEDFATYYCQQANSFPDTFGGGTKVEIK
notes: as for B2
In assay [1], B3 showed a Kd of 6.02 nM, a koff of 0.00122 s⁻¹ and a kon of 203000 M⁻¹ s⁻¹. Moreover, in assay [2], the affinity, expressed as Kd, was 2.97 nM; the off-rate (koff) was 0.00229 s⁻¹; the kon turned out to be 771000 M⁻¹ s⁻¹. In assay [5], this molecule yielded a Kd of 1.86 nM, a koff of 0.00124 s⁻¹ and a kon of 668000 M⁻¹ s⁻¹.

B4: BAP-143-00-02 (antibody, V domains shown)
VH: EVQLVESGGGLVQPGGSLRLSCAASGFTFSSYNMNWVRQAPGKGLEWVSYISSSSSTIYYADSVKGRFTISRDNAKNSLSLQMNSLRDEDTAVYYCARAYYYGMDVWGQGTTVTVSS
VL: DIQMTQSPSSVSASVGDRVTITCRASQGISGWLAWYQQKPGKAPKFLIYAASTLQSGVPSRFSGSGSGTDFTLTISSLQPEDFATYYCQQANSEPPTFGGGTKVEIK
notes: as for B2
With B4, in assay [5], the dissociation constant (Kd) came to 4.71 nM, the dissociation rate constant (koff) is 0.00179 s⁻¹ and the association rate constant (kon) worked out at 380000 M⁻¹ s⁻¹.

B5: BAP-143-07-03-12 (antibody, V domains shown)
VH: EVQLVESGGGLVQPGGSLRLSCAASGFTFSSYNMNWVRQAPGKGLEWVSYISSSSSTIYYADSVKGRFTISRDNAKNSLSLQMNSLRDEDTAVYYCARAYYYGMDKWGQGTTVTVSS
VL: DIQMTQSPSSVSASVGDRVTITCRASQGISGWEAWYQQKPGKAPKFLIYAASTLQSGVPSRFSGSGSGTDFTLTISSLQPEDFATYYCQQANSFPPTFGGGTKVEIK
notes: as for B2
In assay [3], B5 gave a dissociation constant (Kd) of 0.738 nM, a koff of 0.0012 s⁻¹ and a kon of 1.62e+06 M⁻¹ s⁻¹. In assay [4], this molecule gave a Kd of 1.6 nM, a koff of 0.000876 s⁻¹ and a kon of 549000 M⁻¹ s⁻¹.

B6: BAP-143-00-04 (antibody, V domains shown)
VH: EVQLVESGGGLVQPGGSLRLSCAASGFTFSSYNDNWVRQAPGKGLEWVSYISSSSSTIYYADSVKGRFTISRDNAKNSLSLQMNSLRDEDTAVYYCARAYYYGMDVWGQGTTVTVSS
VL: DIQMTQSPSSVSASVGDRVTITCRASQGISGWLAWYQQKPGKAPKFLIYAASTLQSGVPSRFSGSGSGTDFTLTISSLQPEDFATYYCQQANSFPPTFGGGTKVEIK
notes: as for B2
Turning to B6, in assay [1], the Kd turned out to be 2.58 nM, the koff was 0.00155 s⁻¹ and the kon stood at 602000 M⁻¹ s⁻¹. Moreover, in assay [2], the affinity, expressed as Kd, was 1.5 nM; the koff stood at 0.00439 s⁻¹; the on-rate constant (kon) stood at 2.94e+06 M⁻¹ s⁻¹. In assay [5], this molecule displayed a Kd of 1.12 nM, an off-rate (koff) of 0.0018 s⁻¹ and a kon of 1.6e+06 M⁻¹ s⁻¹.

B7: BAP-143-06-33-16 (antibody, V domains shown)
VH: EVQLVQSGAEVKKPGATVKISCKVSGFTFSSYNMNWIRQSPSRGLEWLGYISSSSSTIYYADSVKGRFTISRDNSKNTLYLQMNSLRAEDTAVYYCARAYYYGDDVWGQGTLVTVSS
VL: DIQMTQSPSSVSASVGDRVTITCRASQGISGWEAWYQQKPGKAPKFLIYAASTLQSGVPSRFSGSGSGTDFTLTISSLQPEDFATYYCQQANSFPPTFGGGTKVEIK
notes: as for B2
On to B7, for which, in assay [3], binding was characterised by a dissociation constant (Kd) of 0.154 nM, the koff was 0.000394 s⁻¹ and the kon stood at 2.57e+06 M⁻¹ s⁻¹. Further, in assay [4], the affinity, expressed as Kd, was 0.163 nM; the koff worked out at 0.00026 s⁻¹; the kon turned out to be 1.6e+06 M⁻¹ s⁻¹.

B8: BAP-143-00-05 (antibody, V domains shown)
VH: EVQLVESGGGLVQPGGSLRLSCAASGFTFSSYNMNWVRQAPGKGLEWVSYISSSSSTIYYADSVKGRFTISRDNAKNSLSLQMNSLRDEDTAVYYCAEAYYYGMDVWGQGTTVTVSS
VL: DIQMTQSPSSVSASVGDRVTITCRASQGISGWLAWYQQKPGKAPKFLIYAASTLQSGVPSRFSGSGSGTDFTLTISSLQPEDFATYYCQQANSFPPTFGGGTKVEIK
notes: as for B2
As to B8, the Kd amounted to 6.37 nM in assay [1], 6.23 nM in assay [2] and 3.96 nM in assay [5]. Moreover, the koff in assay [1] turned out to be 0.00242 s⁻¹; in assay [2], 0.00453 s⁻¹; in assay [5], 0.00237 s⁻¹. The kon in assay [1] was determined as 380000 M⁻¹ s⁻¹; in assay [2] it was 726000 M⁻¹ s⁻¹; in assay [5], 599000 M⁻¹ s⁻¹.

B9: BAP-143-00-06 (antibody, V domains shown)
VH: EVQLVESGGGLVQPGGSLRLSCAASGFTFSSYNMNWVRQAPGKGLEWVSYISSSSSTIYYADSVKGRFTISRDNAKNSLSLQMNSLRDEDTAVYYCARAYYYGDDVWGQGTTVTVSS
VL: DIQMTQSPSSVSASVGDRVTITCRASQGISGWLAWYQQKPGKAPKFLIYAASTLQSGVPSRFSGSGSGTDFTLTISSLQPEDFATYYCQQANSFPPTFGGGTKVEIK
notes: as for B2
In the case of B9, in assay [1], the Kd was found to be 1.61 nM, the koff stood at 0.00114 s⁻¹ and the association rate constant (kon) was 707000 M⁻¹ s⁻¹. In assay [2], this molecule showed a Kd of 0.22 nM, a koff of 0.000726 s⁻¹ and a kon of 3.3e+06 M⁻¹ s⁻¹. In assay [5], this molecule yielded a Kd of 0.398 nM, a koff of 0.000769 s⁻¹ and a kon of 1.93e+06 M⁻¹ s⁻¹.

(Values after patent publication US20230235054A1 (BIOATLA, published 2023).)
